Read-outs that look alike come from different tables or passages of the source.
Key:
dGAE (tau 297-391) [1] = target: T1, dGAE (tau 297-391) (human, UniProt P10636 614-708); assay: direct ELISA
T1 construct: monomer; also called dGAE95

[2] = target: T2, full length human tau protein 2N4R (hT40) (human, UniProt P10636 1-758); assay: Biacore
T2 construct: recombinant; also called T441
Experimental: (§1) The capture antibody was diluted 1/100 in 10 mM Sodium acetate buffer pH 5.0 and passed over the activated chip surface for a period of at least 420 s. Final ligand immobilisation levels over 12,000 RU were deemed to be satisfactory.
(§2) The scAb to be tested was added only to flow cell 2 so that flow cell 1 could act as a control to subtract any interaction with the analyte and the chip surface. […] The multi-cycle protocol was as follows-Three start-up cycles composed of an initial capture, to the desired level, of the scAb to be tested was performed followed by a 30 s injection of glycine buffer pH 2.0 after each cycle to regenerate the chip surface. […] The target was added for a 120 s association period and 420 s dissociation period followed by another regeneration, 30 s injection of glycine buffer pH 2.0 in between each cycle.
(§3) The single cycle kinetics protocol was similar and utilised the same level of scAb capture. […] In single cycle kinetics the regeneration step was performed only after the final analyte concentration was added. Binding responses were analysed in Biacore X100 evaluation software and data fitted to a 1:1 binding model to obtain kinetic and affinity characterisation.

tau fragment 369-390 [3] = target: T3, tau fragment 369-390 (human); assay: direct ELISA
T3 peptide: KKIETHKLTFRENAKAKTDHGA

tau fragment 369-391 = target: T4, tau fragment 369-391 (human); assay: ELISA
T4 peptide: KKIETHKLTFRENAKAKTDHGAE
Experimental: (§4) A series of binding ELISA was performed using various truncated versions of the tau protein and 13mer peptide libraries spanning the entire hT40 molecule for mapping the epitopes of anti-tau scAbs (Full list of protein antigens used is given in Table 14). In general, ELISA plates were coated with 1 μg/ml hT40 or dGA or dGAE or other truncated versions of the protein and in the case of biotinylated peptides, plates were coated with 5 μg/ml Streptavidin followed by 1 μg/ml biotinylated peptide. The plates were blocked with 2% MPBS and scAb samples added at desired starting concentrations and double diluted across the plate. Binding was detected using anti-Human C Kappa HRP conjugated secondary antibody and the resulting immunoreaction was developed and absorbance values measured as described above.

[4] = target: T2, full length human tau protein 2N4R …; assay: sandwich ELISA, S1D12 mAb capture, scAb detection
Experimental: Full length tau (hT40), at 1 μg/ml starting concentration was added to designated wells and double diluted across rest of the plates and left to incubate at R/T for 1 h. A series of detection scAbs with varying epitope recognition properties were added at 10 μg/ml to designated wells (FIG. 22). For colourimetric detection HRP conjugated anti-HuCk secondary antibody was used and the resulting immunoreaction was developed and absorbance at 450 nm measured as described previously. Cut-off point for a positive binding event was an absorbance value of 0.3 following background subtraction. In order to enhance the assay sensitivity, a chemiluminescent detection method was adopted where 50 μL SuperSignal ELISA Femto Substrate (Thermo Scientific) was added to each well following incubation with anti-HuCK HRP antibody and subsequent washing. The luminescence was read using Clariostar Plus microplate reader. A further modification to this protocol was done where various detection scAbs were directly conjugated with HRP and detected using chemiluminescent protocol as before.

[5] = target: T2, full length human tau protein 2N4R …; assay: hT40 ELISA
dGA (tau 297-390) = dGA (tau 297-390) (human, UniProt P10636 614-707); assay: ELISA
Experimental: as §4

dGAE (tau 297-391) [6] = target: T1, dGAE (tau 297-391); assay: direct ELISA; remark: listed apart in the source
tau fragment 369-390 [7] = target: T3, tau fragment 369-390; assay: direct ELISA
aggregated dGAE [8] = target: T5, aggregated dGAE (human, UniProt P10636 614-708, limits assumed); assay: capture ELISA, mAb coated at 1 µg/ml, aggregates titrated, S1G2 scAb detection
T5 construct: dGAE aggregated in vitro with DTT, 700 rpm, 37 C, 24 h; also called dGAE aggregates; dGAE agg

[9] = target: T6, human tau (hT40) with P301S and G335D of Line 66 mice (human, UniProt P10636 1-758); assay: Western blot
T6 construct: transgene product in brain homogenate or plasma; also called L66 human tau
T6 sequence (P10636 other isoform, or with tags, fused parts or gaps P301S G335D P301S G335D limits assumed): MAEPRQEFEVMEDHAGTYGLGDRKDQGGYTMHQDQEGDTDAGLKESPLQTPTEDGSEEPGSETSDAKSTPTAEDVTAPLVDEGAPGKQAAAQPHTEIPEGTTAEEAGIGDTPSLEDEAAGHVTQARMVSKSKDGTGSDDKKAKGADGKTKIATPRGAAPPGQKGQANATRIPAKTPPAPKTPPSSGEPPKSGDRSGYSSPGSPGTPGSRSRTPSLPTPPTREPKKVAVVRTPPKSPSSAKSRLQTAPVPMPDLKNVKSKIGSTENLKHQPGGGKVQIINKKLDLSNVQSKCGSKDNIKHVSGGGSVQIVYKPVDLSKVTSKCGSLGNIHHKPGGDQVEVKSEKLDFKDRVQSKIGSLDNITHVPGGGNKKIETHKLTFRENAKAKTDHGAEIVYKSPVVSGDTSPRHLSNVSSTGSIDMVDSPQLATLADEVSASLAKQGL

[10] = target: T2, full length human tau protein 2N4R …; assay: SPR, hT40 immobilised, mAb analyte
Experimental: For anti-tau mAb SPR measurements, htau40 was conjugated to the surface of a CM5 sensor chip using amine coupling as explained previously. Briefly, 2 μg/mL htau40 in 10 mM Sodium acetate buffer (pH 4.0) was passed over the activated chip surface (EDC/NHS) in flow cell 2 for a period for 45 s followed by blocking with 1 M ethanolamine-HCl PH 8.5. Flow cell 1 was set up as reference control and blocked simultaneously. Final immobilisation level of htau40 (Rmax) was approximately 250 RU. […] The mAb was added for a 120 s association period and 600 s dissociation period followed by a regeneration cycle of 30 s injection of glycine buffer pH 1.5 in between each cycle. Binding responses were analysed in Biacore X100 evaluation software and data fitted to a 1:1 binding model to obtain kinetic and affinity characterisation.

aggregated dGAE [11] = target: T5, aggregated dGAE; assay: capture ELISA, mAb coated at 1 µg/ml, S1G2 scAb detection
tau peptide 145-157 = target: T7, tau peptide 145-157 (human); assay: ELISA
T7 peptide: ADGKTKIATPRGA
Experimental: as §4

[12] = target: T2, full length human tau protein 2N4R …; assay: SPR, scAb captured, tau analyte
Experimental: as §1, §2, §3

[13] = target: T8, human tau fragment 296-390 of Line 1 mice (human, UniProt P10636 613-707); assay: Western blot of brain homogenates
T8 construct: also called L1 fragment; 10-kDa tau fragment

mouse tau = target: T9, mouse tau (mouse, UniProt P10637 2-733); assay: Western blot of brain homogenates
T9 construct: endogenous protein of mouse brain or plasma; also called endogenous mouse tau
T9 sequence (P10637 other isoform, or with tags, fused parts or gaps limits assumed): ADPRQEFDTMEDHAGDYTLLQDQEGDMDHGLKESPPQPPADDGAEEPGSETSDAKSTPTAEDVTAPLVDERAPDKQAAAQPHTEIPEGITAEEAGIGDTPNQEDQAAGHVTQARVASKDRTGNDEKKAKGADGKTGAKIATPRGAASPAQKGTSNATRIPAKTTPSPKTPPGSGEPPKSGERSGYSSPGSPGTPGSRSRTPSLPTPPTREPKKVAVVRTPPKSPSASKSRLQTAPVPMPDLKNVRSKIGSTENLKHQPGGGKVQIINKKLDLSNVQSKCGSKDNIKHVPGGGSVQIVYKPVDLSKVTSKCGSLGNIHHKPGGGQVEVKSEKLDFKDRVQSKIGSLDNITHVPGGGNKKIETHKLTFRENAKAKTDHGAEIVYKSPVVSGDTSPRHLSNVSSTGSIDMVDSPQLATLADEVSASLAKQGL

T2 sequence (P10636 other isoform, or with tags, fused parts or gaps limits assumed): as the sequence (P10636 other isoform, or with tags, fused parts or gaps P301S G335D P301S G335D limits assumed) above, with S301P, D335G counted along it

B1: S1G10 scAb (scFv, not shown: small tags and cut ends)
scFv: QVQLQESGPSLVKPSQTLSLTCTVSGFSLTSNSVGWVRQAPGKAPEWVAGIDTDGEEGYNPALNSRLSITRDTSKSQVSLSLSSVTSEDTAVYYCGRSYRADGLAYGYVQAIDYWGPGLLVTVSSEGKSSGASGESKVDDQAVLTQPSSMSGSLGQRVSITCSGSFIGISSVGWFQQLPGSGLRTIIVASDGRPSGVPDRFSMSKSGNTATLTISSLQAEDEADYFCGSSDRTQYTGVFGSGTRLTVLG
notes: scAb
- EC50 (read off the curve) (dGAE (tau 297-391) [1]): ~0.9 µg/mL
- Kd [2]: 0.4 nM
- binding result (tau fragment 369-390 [3]): binds
- binding result (tau fragment 369-391): binds
- LoD chemiluminescence detection [4]: 0.12 ng/mL
- LoD colourimetric detection [4]: 2 ng/mL

B2: S1B1 scAb (scFv, not shown: small tags and cut ends)
scFv: QVQLQESGPSLVKPSQTLSLTCTVSGFSLSSNSVGWVRQAPGKAPEWVAGIDTDGEEGYNPALNSRLSITRDTSKSQVSLSLSSVTSEDTAVYYCVRSYRTDGLAYGYVQAIDYWGPGLLVTVSSEGKSSGASGESKVDDQAVLTQPSSVSGSLGQRVSITCSGSFIGISSVGWFQQLPGSGLRTVIVASDGRPSGVPDRFSNSKSGNTATLTISSLQAEDEADYFCGSSDRTQYTGVFGSGTRLTVLG
notes: scAb
- binding result (dGAE (tau 297-391) [1]): binds
- binding result [5]: binds
- binding result (dGA (tau 297-390)): binds

B3: S2C6 scAb (scFv, not shown: small tags and cut ends)
scFv: QVQLQESGPSLVKPSQTLSLTCTVSGFSLISNSVGWVRQAPGKAPEWVAGIDTDGEEGYNPALKSQYAASDPDTSKSQVSLSLSSVTSEDTAVYYCGRTYRTDGFAYGYVQAIDYWGPGLLLTISSEGKSSGASGESKVDDQAVLTQPSSVSGSLGQRVSITCSGSFIGISSVGWFQQLPGSGLRTIIVASDGRPSGVPDRFSMSKSGNTATLTISSLQAEDEADYFCGSSDRTQYTGVFGSGTRLTVLG
notes: scAb
- EC50 (read off the curve) (dGAE (tau 297-391) [6]): ~0.8 µg/mL
- EC50 (read off the curve) (tau fragment 369-390 [7]): ~2 µg/mL

B4: S1D9 scAb (scFv, not shown: small tags and cut ends)
scFv: QVQLQESGPSLVKPSQTLSLTCTVSGFSLTSNSVGWVRQAPGKAPEWVAGIDSDGEEGYNPALNSRLSITRDTSKNQVSLSLSRVTSEDTAVYYCGRTYRTDGYAYGYVQAIDYWGPGLLVTVSSEGKSSGASGESKVDDRVMLTQPPSVSGSPGQTVSITCSGSFIGISSVGWFQQLPGSGLRTVIFASDGRPSGVPDRFSNSKSGNTATLTISSLQAEDEADYFCGSSDRTQYTGVFGSGTRLTVLS
notes: scAb
- EC50 (read off the curve) [5]: ~1 µg/mL

B5: S1D12 mAb (antibody, mouse IgG2a, V domains shown)
VH: QVQLQESGPSLVKPSQTLSLTCTVSGFSLNNNAVGWVRQAPGKVPESLVGCSSDGTCYYNSALKSRLDITRDTSKNQISLSLSSVTTDDAAVYYCTRGHYSIYGYDYLGTIDYWGPGLLVTVSS
VL: QAVLTQPSSVSGSLGQRVSITCSGSSSNVGGGNSVGWYQHLPGSGLKTIIYDTNSRPSGVPDRFSGSRSGNTATLTINSLQAEDEGDYYCVTGDSTTHDDLVGSGTRLTVLG
notes: sheep-mouse IgG2a chimeric mAb; also called S1D12 antibody; SD12
- EC50 (read off the curve) (aggregated dGAE [8]): ~30 nM
- binding result [9]: binds
- Kd [10]: 0.101 nM
- koff [10]: 4.09e-05 s⁻¹
- kon [10]: 406000 M⁻¹ s⁻¹

B6: E2E8 mAb (antibody, mouse IgG2a, V domains shown)
VH: QVQLQESGPSLVKPSQTLSLTCTVSGFSLTDRGVAWVRQAPGKALEWVGTMRSGGTIDYNPALKSRLSITRDTSKSQVFLSLSSVTTEDMAMYYCARGYLSGDRYAWGRGLLVTVSS
VL: QAVLTQPSSVSKSLGQSVSIACSGSRSDIGYGNYVSWFQQIPGSAPKLLIYDTNTRASGVPDRFSGARSGNTATLTINSLQAEDEADYYCANIDSSRSHLFGSGTRLTVLG
notes: sheep-mouse IgG2a chimeric mAb
- EC50 (read off the curve) (aggregated dGAE [8]): ~80 nM

B7: CA4 mAb (antibody, mouse IgG2a, V domains shown)
VH: QVQLQESGPSLVKPSQTLSLTCTVSGFSLTSYSVYWVRQAPGQALEWISIMYASGRVDYNPALKSRLSITRDTSKSQFSLSLSSVTTEDTAVYYCTRGIENWGPGLLVTVSS
VL: DIQVTQSPSSLSASLTERVSITCRTSQSVNNYLSWYQQKPGQAPKLLIYYATRLYTDVPSRFSGSGSGTDYTLTITSLEADDTATYYCLQYDSTPLAFGGGTNVEIKG
notes: sheep-mouse IgG2a chimeric mAb; also called CA4 antibody
- binding result (aggregated dGAE [11]): no binding (tested: 800 nM)
- Kd [10]: 1.3 nM
- koff [10]: 0.00128 s⁻¹
- kon [10]: 1.02e+06 M⁻¹ s⁻¹

B8: 3aA6 scAb (scFv, not shown: small tags and cut ends)
scFv: QVRLQESGSSLVKPSQTLSLVCTVSGFPLTSNAVGWVRQAPGKAPEWLGLIDIDGDTAYNPALESRLSITRDTSKSQVSLSLSSVAIEDTAVYYCARHYDKWGYADSIDYWGPGLLVTVSSEGKSSGASGESKVDDQALLTQPSSVFGSLGQRVSITCSGSSSNVGYGDYVGWYQQVPGSAPKLLIYDATTRASGVPDRFSGSRSGNTATLTISSLQAEDEADYYCASYQNERSGVFGSGTRLTVLG
notes: scAb
- binding result (tau peptide 145-157): binds
- Kd [12]: 989 nM
- koff [12]: 0.0188 s⁻¹
- kon [12]: 19000 M⁻¹ s⁻¹

B9: 3aD6 scAb (scFv, not shown: small tags and cut ends)
scFv: QVQLQESGPSLVKPSQTLSLTCTVSGFSLTSNAVIWVRQAPGKAPEWVALIDVDGDAAYDPALKSRLSITRDTSKSQVSLSLRSVTTEDTAVYYCARDYGSWGYVSDIDYWGPGLLVTVSSEGKSSGASGESKVDDQAVLTQPSSVSGSLGQRVSITCSGSDIGGADVGWFQQVPGSGLRTLIYDNDNRPSGVPDRFSGSKSGNTATLTISSLQPEDEADYFCGTYSGANYGIFGSGTRLTVLG
notes: scAb
- binding result (tau peptide 145-157): binds

B10: CC7 mAb (antibody, mouse IgG2a, V domains shown)
VH: QVQLQESGPSLVKPSQTLSLTCTVSGFSLTSNAVIWVRQAPGKAPEWVALIDVDGDAAYDPALKSRLSITRDTSKSQVSLSLRSVTTEDTAVYYCARDYGSWGYVSDIDYWGPGLLVTVSS
VL: RVVRTQPSSVSGSLGQRVSITCSGSYITGSSVGWFQQVPGSGLKTVIYDNNDRPSGVPDRFSGSKSGDTATLTISSLQAEDEADYYCASYDTSNIGLFGSGTRLTVLG
notes: sheep-mouse IgG2a chimeric mAb; also called CC7 antibody
- binding result [13]: no binding
- binding result (mouse tau): no binding
- binding result [9]: binds
- Kd [10]: 6.9 nM
- koff [10]: 0.0316 s⁻¹
- kon [10]: 4.58e+06 M⁻¹ s⁻¹

Source: US20250355001A1 (GTINVENT, published 2025)
